Assay results reported in US20110189154.

Columns and labels:
[1] = target: T1, Tsa1 (S. cerevisiae 2-Cys peroxyredoxin) (UniProt P34760)
T1 sequence: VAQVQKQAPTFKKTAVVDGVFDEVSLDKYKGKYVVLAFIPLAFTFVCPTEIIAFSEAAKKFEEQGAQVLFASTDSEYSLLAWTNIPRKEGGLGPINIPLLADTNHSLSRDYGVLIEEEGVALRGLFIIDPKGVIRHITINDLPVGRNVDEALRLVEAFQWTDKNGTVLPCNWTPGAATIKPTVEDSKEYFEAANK

[2] = target: 6His-Prx1 (human peroxyredoxin Prx1), superoxidized in the cysteine sulfinic acid form (UniProt Q06830)
[3] = target: 6His-Prx2 (human peroxyredoxin Prx2), superoxidized in the cysteine sulfinic acid form (UniProt P32119)
Chain of 6His-Prx2 (human peroxyredoxin Prx2), superoxidized in the cysteine sulfinic acid form (P32119 whole entry): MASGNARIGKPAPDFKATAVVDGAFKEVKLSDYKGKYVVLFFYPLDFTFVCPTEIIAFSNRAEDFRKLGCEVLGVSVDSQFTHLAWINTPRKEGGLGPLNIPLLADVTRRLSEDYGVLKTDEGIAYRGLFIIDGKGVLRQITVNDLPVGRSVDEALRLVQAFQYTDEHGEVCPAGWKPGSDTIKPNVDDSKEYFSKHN

Chain of hSrx1 (human sulfiredoxin) (chain, as listed by the source): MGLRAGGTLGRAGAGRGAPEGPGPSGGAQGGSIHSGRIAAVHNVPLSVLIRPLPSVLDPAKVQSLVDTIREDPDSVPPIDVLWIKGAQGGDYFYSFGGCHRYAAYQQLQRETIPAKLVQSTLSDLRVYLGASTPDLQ
Chain of 6His-Prx1 (human peroxyredoxin Prx1), superoxidized in the cysteine sulfinic acid form (Q06830 whole entry): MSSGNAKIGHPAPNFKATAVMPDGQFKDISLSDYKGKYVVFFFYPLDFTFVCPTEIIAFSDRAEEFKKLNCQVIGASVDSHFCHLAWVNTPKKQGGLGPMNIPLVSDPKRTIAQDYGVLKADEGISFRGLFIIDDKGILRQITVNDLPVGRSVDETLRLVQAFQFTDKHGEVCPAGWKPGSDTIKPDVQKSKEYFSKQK

## HA-tagged Srx1^C84S (S. cerevisiae Srx1 with Cys84 changed to serine)
[1]
  reduction of the Cys-SO2H form of Tsa1: completely eliminates the formation of the disulfide bridge between Srx1 and Tsa1 and the reduction of the Cys-SO2H form of Tsa1

## hSrx1 (human sulfiredoxin)
[2]
  reduction of superoxidized 6His-Prx1 in vitro: shows the ability of hSrx1, expressed from Baculovirus in High Five cells, to reduce the human peroxyredoxins 6His-Prx1 and 6His-Prx2 superoxidized in the cysteine sulfinic acid form
[3]
  reduction of superoxidized 6His-Prx2 in vitro: shows the ability of hSrx1, expressed from Baculovirus in High Five cells, to reduce the human peroxyredoxins 6His-Prx1 and 6His-Prx2 superoxidized in the cysteine sulfinic acid form
